The target in this experiment is EEEV virus-like particles (VLPs: C, E2, and E1) (Eastern equine encephalitis virus) (UniProt Q4QXJ7). Nature of the experiment: ELISA. (In general: In an ELISA, binding on a coated surface is turned into a signal by an enzyme label.)

Take “LA3-LA3-LA3-LA3-LA3-Fc [LA3(5)-Fc] (from UniProt P01130) (Fc fusion)”: the fold increase in binding avidity was determined as 100 fold.

The values are drawn from publication PMC10764363.
